B1: VEGF-DΔNΔC [human] / Recombinant human VEGFR-2-Fc chimera [human] (parent complex)
chain 1: FYDIETLKVIDEEWQRTQCSPRETCVEVASELGKSTNTFFKPPCVNVFRCGGCCNEESLICMNTSTSYISKQLFEISVPLTSVPELVPVKVANHTGCKCLPTAPRHPYS
chain 2: ASVGLPSVSLDLPRLSIQKDILTIKANTTLQITCRGQRDLDWLWPNNQSGSEQRVEVTECSDGLFCKTLTIPKVIGNDTGAYKCFYRETDLASVIYVYVQDYRSPFIASVSDQHGVVYITENKNKTVVIPCLGSISNLNVSLCARYPEKRFVPDGNRISWDSKKGFTIPSYMISYAGMVFCEAKINDESYQSIMYIVVVVGYRIYDVVLSPSHGIELSVGEKLVLNCTARTELNVGIDFNWEYPSSKHQHKKLVNRDLKTQSGSEMKKFLSTLTIDGVTRSDQGLYTCAASSGLMTKKNSTFVRVHEKPFVAFGSGMESLVEATVGERVRIPAKYLGYPPPEIKWYKNGIPLESNHTIKAGHVLTIMEVSERDTGNYTVILTNPISKEKQSHVVSLVVYVPPQIGEKSLISPVDSYQYGTTQTLTCTVYAIPPPHHIHWYWQLEEECANEPSQAVSVTNPYPCEEWRSVEDFQGGNKIEVNKNQFALIEGKNKTVSTLVIQAANVSALYKCEAVNKVGRGERVISFHVTRGPEITLQPDMQPTEQESVSLWCTADRSTFENLTWYKLGPQPLPIHVGELPTPVCKNLDTLWKLNATMFSNSTNDILIMELKNASLQDQGDYVCLAQDRKTKKRHCVVRQLTVLERVAPTITGNLENQTTSIGESIEVSCTASGNPPPQIMWFKDNETLVEDSGIVLKDGNRNLTIRRVRKEDEGLYTCQACSVLGCAKVEAFFIIEGAQEKTNLE
B2: VEGF-DΔNΔC [human] / Recombinant human VEGFR-3-Fc chimera [human] (parent complex)
chain 1: B1 chain 1
chain 2: YSMTPPTLNITEESHVIDTGDSLSISCRGQHPLEWAWPGAQEAPATGDKDSEDTGVVRDCEGTDARPYCKVLLLHEVHANDTGSYVCYYKYIKARIEGTTAASSYVFVRDFEQPFINKPDTLLVNRKDAMWVPCLVSIPGLNVTLRSQSSVLWPDGQEVVWDDRRGMLVSTPLLHDALYLQCETTWGDQDFLSNPFLVHITGNELYDIQLLPRKSLELLVGEKLVLNCTVWAEFNSGVTFDWDYPGKQAERGKWVPERRSQQTHTELSSILTIHNVSQHDLGSYVCKANNGIQRFRESTEVIVHENPFISVEWLKGPILEATAGDELVKLPVKLAAYPPPEFQWYKDGKALSGRHSPHALVLKEVTEASTGTYTLALWNSAAGLRRNISLELVVNVPPQIHEKEASSPSIYSRHSRQALTCTAYGVPLPLSIQWHWRPWTPCKMFAQRSLRRRQQQDLMPQCRDWRAVTTQDAVNPIESLDTWTEFVEGKNKTVSKLVIQNANVSAMYKCVVSNKVGQDERLIYFYVTTIPDGFTIESKPSEELLEGQPVLLSCQADSYKYEHLRWYRLNLSTLHDAHGNPLLLDCKNVHLFATPLAASLEEVAPGARHATLSLSIPRVAPEHEGHYVCEVQDRRSHDKHCHKKYLSVQALEAPRLTQNLTDLLVNVSDSLEMQCLVAGAHAPSIVWYKDERLLEEKSGVDLADSNQKLSIQRVREEDAGRYLCSVCNAKGCVNSSASVAVEGSEDKGSME

Variants of: B1
Assay: ELISA; The same amount of each VEGF-DΔNΔC variant was used; assays conducted three times; parent: 100; read off a plot
Work on chain 1 Y2A yielded a percent of parent of about 86%.
chain 1 E13A gave a percent of parent of about 14%.
Work on chain 1 E5A yielded a percent of parent of about 99%.
Work on chain 1 K8A yielded a percent of parent of about 88%.
chain 1 V9A showed a percent of parent of about 110%.
chain 1 I10A showed a percent of parent of about 20%.
chain 1 F1A gave a percent of parent of about 89%.
For chain 1 I4A, the percent of parent was about 100%.
With chain 1 L7A the percent of parent was about 19%.
chain 1 D11A showed a percent of parent of about 100%.
For chain 1 W14A, the percent of parent was about 62%.
With chain 1 E12A the percent of parent was about 100%.
chain 1 D3A showed a percent of parent of about 95%.
For chain 1 R16A, the percent of parent was about 110%.
chain 1 Q15A was tested, and the percent of parent was about 110%.
chain 1 T6A showed a percent of parent of about 100%.

Variants of: B2
Assay: as above
Variant chain 1 K8A has a percent of parent of about 87%.
chain 1 L7A showed a percent of parent of about 3%.
For chain 1 I10A, the percent of parent was about 9%.
In the case of chain 1 W14A, the percent of parent is reported as about 72%.
Variant chain 1 E5A has a percent of parent of about 99%.
chain 1 R16A showed a percent of parent of about 100%.
Variant chain 1 Q15A has a percent of parent of about 110%.
Variant chain 1 F1A has a percent of parent of about 72%.
With chain 1 V9A the percent of parent was about 100%.
Work on chain 1 Y2A yielded a percent of parent of about 23%.
In the case of chain 1 D3A, the percent of parent is reported as about 96%.
Variant chain 1 I4A has a percent of parent of about 99%.
chain 1 E12A showed a percent of parent of about 100%.
chain 1 T6A was tested, and the percent of parent was about 97%.
In the case of chain 1 E13A, the percent of parent is reported as about 13%.
Work on chain 1 D11A yielded a percent of parent of about 160%.
